Earlier results, collected in PMC10412679.

Biological target: CD47 (Homo sapiens) (UniProt Q08722)

Kd: 8 nM
Substance: magrolimab
